The values below come from US20060252916A1, “Modified glucagon-like peptide-1 analogs” (ELI LILLY AND COMPANY, priority 2002, published 2006).

The experiment has as its target T1, human GLP-1 receptor (Homo sapiens, UniProt P43220).
T1 construct: expressed in transfected cells; host or cells: HEK-293 Aurora CRE-BLAM cells
Put plainly: In vitro potency, CRE-BLAM fluorescence assay. The format is cell-based. Particulars: HEK-293 Aurora CRE-BLAM cells expressing the human GLP-1 receptor; 5 hours incubation; control Val^8-GLP-1(7-37)OH. The method, then: “In vitro potency” as used herein is the measure of the ability of a peptide to activate the GLP-1 receptor in a cell-based assay. In vitro potency is expressed as the “EC50” which is the effective concentration of compound that results in 50% activity in a single dose-response experiment. For the purposes of the present invention, in vitro potency is determined using a fluorescence assay that employs HEK-293 Aurora CRE-BLAM cells that stably express the human GLP-1 receptor. These HEK-293 cells have stably integrated a DNA vector having a cAMP response element (CRE) driving expression of the β-lactamase (BLAM) gene. The interaction of a GLP-1 agonist with the receptor initiates a signal that results in activation of the cAMP response element and subsequent expression of β-lactamase. The β-lactamase CCF2/AM substrate that emits fluorescence when it is cleaved by β-lactamase (Aurora Biosciences Corp.) can then be added to cells that have been exposed to a specific amount of GLP-1 agonist to provide a measure of GLP-1 agonist potency. […]
HEK-293 Aurora CRE-BLAM cells expressing the human GLP-1 receptor are seeded at 20,000 to 40,000 cells/well/100 μl into a 96 well black clear bottom plate. […] Generally, fourteen dilutions containing from […] to 30 nanomolar GLP-1 compound were used to generate a dose response curve from which EC50 values could be determined. […]

No end group written: not given here.

T1 sequence (P43220 24-463): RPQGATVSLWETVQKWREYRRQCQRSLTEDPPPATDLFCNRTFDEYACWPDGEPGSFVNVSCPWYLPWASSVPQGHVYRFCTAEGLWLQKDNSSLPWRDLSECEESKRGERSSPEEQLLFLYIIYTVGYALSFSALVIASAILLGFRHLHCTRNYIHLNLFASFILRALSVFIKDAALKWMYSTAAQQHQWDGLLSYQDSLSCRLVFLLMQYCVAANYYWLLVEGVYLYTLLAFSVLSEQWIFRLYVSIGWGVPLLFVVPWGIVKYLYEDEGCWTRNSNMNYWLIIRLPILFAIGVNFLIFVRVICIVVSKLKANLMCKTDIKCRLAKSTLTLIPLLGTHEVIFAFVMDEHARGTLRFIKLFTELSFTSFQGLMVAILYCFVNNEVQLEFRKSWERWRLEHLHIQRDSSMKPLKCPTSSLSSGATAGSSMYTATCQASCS

As for “GLP-1 compound-HSA conjugate of Example 3: Human serum albumin conjugate of the lysine-modified GLP-1 compound SEQ ID NO:22 of Example 3 (HVEGTFTSDVSSYLEEQAAKEFIAWLIKGRGK(3‑(2-pyridyldithio)propanamide)-NH2; also: conjugated to human serum albumin)”, the “EC50 values compared with Val^8-GLP-1(7-37)OH” value is “about the same as the activity of Val^8-GLP-1(7-37)OH”.
